Laboratory results published in PMC13078889.

Assays:
LARP6 [1] = assay: TR-FRET competition; conditions: vs DIG-labeled A1 RNA; not in the material
LARP6 [2] = assay: ITC; conditions: not in the material

In the case of A1 RNA (COL1A1 5'SL, 48 nt), the IC50 (LARP6 [1]) is reported as 6.84 nM.
COL1A1-TIS was tested, and the Kd (LARP6 [2]) was 400 nM and the IC50 (LARP6 [1]) was 2.71 nM.
In the case of COL1A1-5'SL (A1), ITC, the Kd (LARP6 [2]; only stated as higher Kd than COL1A1-TIS, value in Table 2 not in material) is reported as over 400 nM.
